Laboratory results from patent US12018066 (TRIAD NATIONAL SECURITY, dated 2024).
Residue numbers refer to the chain shown, from its start.

B1: E01 human minibody (scFv-human Fc) (Fc fusion)
chain: SYELTQPPSVSVAPGETARITCGGDNIGRRHVHWYQQKPGQAPVLVIYDDSDRPSGIPDRFSGSNSGNTATLTIGRVEAGDEADYYCQVWGSSNDPHVFGTGTKLTVLSGGSTITSNNVYYTKLSSSGTQVQLQQWGAGLLKPSETLSLKCAVYGGSFSGYYWGWIRQSTGKGLEWIGEINRSGSTNYNPSLKSRVTISVDTSKNQFSLKLSSVTAADTAVYYCARGGARYYYGSGSYRSTPRPYYFDYWGQGTLVTVSS
B2: D11 human minibody (scFv-human Fc) (Fc fusion)
scFv-Fc: SYELTQPPSVSVAPGQTARITCGGNNIGSKSVHWYQQKPGQAPVLVVYDDSDRPSGIPERFSGSNSGNTATLTISGTQAMDEADYYCQAWDSSTAYVFGSGTKLTVLSGGSTITSYNVYYTKLSSSGTQVQLEESGGGLVQPGGSLRLSCAASGFTFSNYAMSWVRQAPGKGLEWVSAISGSGGATFHADSVKGRFTISRDNSKNTLYLQMNSLRAEDTAVYYCARRVGYDSSGYYWSDAFDIWGQGTMVTVSS
B3: G07 human minibody (scFv-human Fc) (Fc fusion)
scFv-Fc: QSVLIQPPSASGTPGQRVTISCSGSNSNFGSNSVSWYQQRPGTAPKLLIEGNNQRPSGVPERFSGSKSGTSASLAISGLQSEDEAEYSCASWDDSLNAFVFGPGTKLTVLSGGSAITSYNVYYTKLSSSGTQVQLVQSGAEVKKPGESLKISCKGSGYSFTSYWIGWVRQMPGKGLEWMGIIYPGDSDIRYSPSFQGQVTISADKSFSSAYLQWSSLKASDTAMYYCARLGATGAFDIWGQGTTVTVSS
B4: R26 human minibody (scFv-human Fc) (Fc fusion)
scFv-Fc: SYELTQPPSVSVAPGQTATITCGGKNIESKSVHWYQQKPGQAPVLVVSDDTDRASGIPERFSGSNSGGAATLTISRVEAGDEADYYCQVWDSPSDHYVFGPGTKLTVLSGGSTITSYNVYYTKLSSSGTQVQLVESGGGVVQPGRSLRLSCAASGFTFSSYAMHWVRQAPGKGLEWVAVISYDGSNKYYADSVKGRFTISRDKAKNTLYLQMNSLRGEDTAVYYCARELSYYDSSGYLRGDWYFDLWGRGTLVTVSS
B5: H03 human minibody (scFv-human Fc) (Fc fusion)
scFv-Fc: SYELTQPPSVSVAPGQTARITCGGNNIGSKSVHWYQQKPGQAPVLVIYYDSDRPSGIPERFSGSNSGNTATLTISRVEAGDEADYYCQVWDSSSALYVFGTRTKVTVLSGGSTITSYNVYYTKLSSSGTQVQLVESGGGLVQPGRSLRLSCAASGFTFDDYAMHWVRQAPGKGLEWVSGISWNSGSIGYADSVKGRFTISRDNAKNSLYLQVNSLRAEDTAVYYCARELIVGTTSPQTDAFDIWGQGTMVTVSS
B6: H05 human minibody (scFv-human Fc) (Fc fusion)
scFv-Fc: SYVLTQPPSVSVAPGQTARITCGANNIGRISVHWYQQKPGQAPVLVVYDDSDRPSGIPERFSGSNFGNTATLTISRVEAGDEADYYCQVWDSYSDHVIFGGGTKLTVLSGGSTITSYNVYYTKLSSSGTQVQLVQSGAEVKKPGSSVKVSCKASGGTFSSYAISWVRQAPGQGLEWMGGIIPIFGTANYAQKFQGRVTITADESTSTAYMELSSLRSEDTAVYYCARSIFGVVIISHADGYYYGMDVWGQGTTVTVSS
B7: H02 human minibody (scFv-human Fc) (Fc fusion)
scFv-Fc: QSVVTQPPSVSAAPGQKVTISCSGSSSNIGNNYVSWYQQLPGTAPKLLIYRDTQRPSGVPDRFSGSKSGTSASLAISGLRSEDEADYYCATWDKSLSGPVFGGGTKVTVLSGGSTITSYNVYYTKLSSSGTQVQLQQSGPGLVKPSQTLSLTCAISGDSVSSNSAAWNWIRQSPSRGLEWLGRTYYRSKWYNDYAVSVKSRIIINPDTSKNQFSLQLNSVTPEDTAVYYCARQDNNPYYGLDVWGQGTTVTVSS
B8: D10 rabbit minibody (scFv-rabbit Fc) (Fc fusion)
scFv-Fc: QSVVTQPPSASGSPGQTVTISCSGNSANIGGNPVNWYQQLPGTAPKLLIYSNNQRPSGVPDRFSGSKSGISASLAISGLQSEDEADYYCAAWDDSLNGVIFGGGTKLTVLSGGSTITSYNVYYTKLSSSGTQVQLVQSGAEVKKPGESLKISCKGSGYSFTSYWIGWVRQMPGKGLEWMGIIYPGDSDTRYSPSFQGQVTISADKSISTAYLQWSSLKASDTAMYYCARRHSGSYSGAFDIWGQGTMVTVSS
B9: B10 rabbit minibody (scFv-rabbit Fc) (Fc fusion)
scFv-Fc: QSVVTQPPSVSGAPGQRVTISCTGSSSNIGSRTVNWYQQLPGTAPKLLIYANNQRPSGVPDRFSGSKSGTSASLAISGLQSEDEADYYCAAWDDSLNGYVFGTGTKLTVLSGGSTITSYNVYYTKLSSSGTQVQLQQSGPGLVKPSQTLSLTCAISGDSVSSNSATWNWIRQSPSRGLEWLGRTYYGSKWHSDYAVSVKSRITINPDTSKNQISLHLNPVTPEDTAVYYCARGRSYAFDIWDQGTMVTVSS
B10: B04 rabbit minibody (scFv-rabbit Fc) (Fc fusion)
scFv-Fc: SYVLTQPPSVSVAPGKTARITCGGNNIGIRSVHWYQQKPGQAPVLVIYYDSDRPSGIPERFSGSKSGNTATLTISRVEAGDEADYYCQVWDSSSDHPVFGGGTKLTVLSGGSTITSYNVYYTKLSSSGTQVQLVESGAEVKKPGASVKVSCKASGYTFTRYYMHWVRQAPGQGLEWMGIINPSGGTTSYAQKFQGRVTMTRDTSTSTVYMELSSLRSEDTAVYYCARSFGELTSFDYWGQGTLVTVSS
B11: H01 rabbit minibody (scFv-rabbit Fc) (Fc fusion)
scFv-Fc: QPGLTQPPSVSLAPGQTARITCGGNNIGSKSVHWYQQKPGQAPVLVVYDDSDRPSGIPERFSGSNAGNTATLTISRVEAGDEADYYCQVWDSRSDQYVFGTRTKLTVLSGGSTITSYNVYYTKLSSSGAQVTLKESGPVLVKPTETLTLTCTVSGFSLSNARMGVSWIRQPPGKALEWLAHIFSNGEKSYSTSLKSRLTISKDTSKSQVVLTMTNMDPVDTATYYCARTLDYYDSSGYLVGGAFDIWGQGTMVTVSS
B12: D07 rabbit minibody (scFv-rabbit Fc) (Fc fusion)
scFv-Fc: B11 scFv-Fc with Q1S, P2Y, G3E, L12V, Q16E, I20M, S29T, S31G
B13: D04 rabbit minibody (scFv-rabbit Fc) (Fc fusion)
scFv-Fc: SYVLTQPPSVSVAPGKTARITCGGNNIGWKSVHWYQQKPGQAPVLVVYNDNDRPSGVPERFSGSNSGNTATLTISRVVAGDEADYYCQVWDSSSDHVLFGGGTKLTVLSGGSTITSYNVYYTKLSSSGTQVQLVQSGAEVKKPGSSVKVSCKASGGTFSSYAISWVRQAPGQGLEWMGGIIPIFGTANYAQKFQGRVTITADESTSTAYMELSSLRSEDTAVYYCARASGRWLQFWHYYGMDVWGQGTTVTVS
B14: E08 rabbit minibody (scFv-rabbit Fc) (Fc fusion)
scFv-Fc: SYVLTQPPSVSVAPGKTARITCGGNNIGWKSVHWYQQKPGQAPVLVVYDDSDRPSGIPERFSGSNSGNTATLTISRVEAGDEADYYCQVWDSSSDLVVFGGGTKLTVLSGGSTITSYNVYYTKLSSSGTQVQLVQSGAEVKKPGSSVKVSCKASGGTFSSYAISWVRQAPGQGLEWMGGIIPIFGTANYAQKFQGRVTITADESTSTAYMELSSLRSEDTAVYYCARASGRWLQFWHYYGMDVWGQGTTVTVSS

target: T1, SARS-CoV spike protein receptor binding domain (RBD1) (SARS-CoV, UniProt P59594 306-527); assay: ELISA, crude human minibody

| Binder | binding result |
| --- | --- |
| B1 | no binding |
| B2 | no binding |
| B3 | no binding |
| B4 | no binding |
| B5 | no binding |
| B6 | no binding |
| B7 | no binding |

target: T1, SARS-CoV spike protein receptor binding …; assay: ELISA, crude rabbit minibody

| Binder | binding result |
| --- | --- |
| B8 | no binding |
| B9 | no binding |
| B10 | no binding |
| B11 | no binding |
| B12 | no binding |
| B13 | no binding |
| B14 | binds |
